Data: the supplement of paper PMC9732359
± gives the uncertainty stated by the source.

Experiment: protein stability index of a GFP-peptide fusion (yeast GPS) (PSI 1-4); higher = more stable; sorted into four equal gates, so the index is relative within each strain
How it was run: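 Each library plasmid carries Cherry plus GFP with a tiled 17-residue yeast protein peptide fused downstream, and the pooled library was carried in yeast. Mid-log cultures in leucine-free medium were sorted into four equal gates by GFP/Cherry ratio. Reads from Illumina sequencing of PCR-amplified plasmids from each gate were assigned to strains by barcodes. Per peptide, the protein stability index was computed as the summed products of gate read frequency and gate number.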

Sequence | protein stability index (doa10∆) | protein stability index (pdr5∆) | protein stability index (san1∆) | protein stability index (ubr1∆)
LAGKYIPNLTAKPFQVT [FAS1] | 2.37 ± 0.06 | 2.76 ± 0.053 | 2.29 ± 0.1 | 2.63 ± 0.048
PREDKENNRLLFECRTC [RPB9] | 3.29 ± 0.14 | 3.17 ± 0.13 | 3.02 ± 0.17 | 3.29 ± 0.16
VGRQDPKKHLSETADET [RPN11] | 3.17 ± 0.078 | 2.96 ± 0.09 | 3.51 ± 0.066 | 2.92 ± 0.078
DLLILTRSIKEKWLLNQ [SRB6] | 1.12 ± 0.1 | 1.35 ± 0.19 | 1.32 ± 0.2 | 1.24 ± 0.17
LTFNSKNIQSKDSYINA [FAS2] | 2.84 ± 0.16 | 2.72 ± 0.076 | 2.73 ± 0.17 | 2.68 ± 0.12
EITEKKNGESLEGEEIK [RPN1] | – | 3.03 ± 0.3 | – | –
PGVDVSAEEQLRKIDML [SRB7] | 2.9 ± 0.084 | 2.61 ± 0.061 | 2.31 ± 0.072 | 2.67 ± 0.043
NAEVVAGNIKCRNDAVN [BRR2] | 2.77 ± 0.11 | 3.67 ± 0.16 | 3.05 ± 0.087 | 2.86 ± 0.14
LLGEGESKLKIDPDTKA [RPB11] | 2.93 ± 0.19 | – | – | 3.14 ± 0.24
EIVNMVPSHVPQVLINR [SIR2] | 3.13 ± 0.11 | 2.93 ± 0.079 | 2.53 ± 0.11 | 2.88 ± 0.054
KQANNFLWPFKLSNPSG [RPL7A] | 2.69 ± 0.13 | 3.02 ± 0.12 | 3.09 ± 0.1 | 2.74 ± 0.11
FHIGYFKATIQILQGIC [RPO31] | 1.39 ± 0.042 | 1.48 ± 0.035 | 1.72 ± 0.062 | 1.54 ± 0.036
SKKRKLVADGVFYAELN [RPS3] | 2.82 ± 0.24 | 1.84 ± 0.19 | 1.55 ± 0.13 | –
KLLKGATLYIPKALRFD [FAS2] | – | 2.79 ± 0.22 | 2.88 ± 0.13 | –
ARKHKLKTLVQGPRSYF [RPS27A] | 3.15 ± 0.14 | 3.34 ± 0.19 | 2.27 ± 0.14 | 2.72 ± 0.19
TQIANAGASPMVNTQQP [PRE4] | 2.94 ± 0.11 | 3.07 ± 0.09 | 2.82 ± 0.075 | 2.82 ± 0.18
SPVYDVDPRIINSENDY [NUT1] | 2.92 ± 0.08 | 3.02 ± 0.074 | 2.39 ± 0.08 | 2.76 ± 0.059
LFSLEKPNLNYFKSILL [SWI1] | 1.38 ± 0.056 | 1.59 ± 0.055 | 1.62 ± 0.082 | 1.86 ± 0.051
KQNEQLHVEQLSGGQKT [SMC3] | 2.07 ± 0.095 | 2.71 ± 0.099 | 2.19 ± 0.1 | 2.19 ± 0.053
NSNKQAVAILADDEKSD [BRR2] | 3.04 ± 0.091 | 3.07 ± 0.071 | 3.03 ± 0.086 | 2.88 ± 0.044
TEGRSRDGGLRLGEMER [RET1] | 1.35 ± 0.081 | 1.82 ± 0.12 | 1.49 ± 0.28 | 1.58 ± 0.071
QPGYADLEHKEDCVEEF [QCR6] | 2.42 ± 0.058 | 2.56 ± 0.068 | 2.52 ± 0.074 | 2.68 ± 0.044
ASLNALKESIKNSTSSM [RPN1] | 3.07 ± 0.087 | 3.25 ± 0.098 | 3.06 ± 0.063 | 3.16 ± 0.076
LNTFGSKICLSHFSLDQ [ITC1] | 2.48 ± 0.06 | 2.18 ± 0.042 | 2.09 ± 0.095 | 2.33 ± 0.039
ESNNKKYPIFTGESWVK [YDL088C/ASM4] | 2.73 ± 0.062 | 2.59 ± 0.081 | 2.33 ± 0.083 | 2.74 ± 0.06
PWFWLLPLWHLLNRIPR [POP1] | 2.57 ± 0.084 | 1.56 ± 0.054 | 1.33 ± 0.12 | 1.26 ± 0.046
KSLHEMNERDWRILKED [PRP28] | 3.4 ± 0.19 | 3.05 ± 0.2 | 3.33 ± 0.072 | 3.01 ± 0.23
EQDPYSNASQMGNTGSG [RPB3] | 2.7 ± 0.13 | 2.45 ± 0.14 | 2.21 ± 0.2 | 2.95 ± 0.1

Sequence | protein stability index (doa10∆) | protein stability index (pdr5∆) | protein stability index (san1∆) | protein stability index (ubr1∆)
TGNNNNIATQQNMQQSL [GAL11] | 2.06 ± 0.048 | 2.49 ± 0.077 | 2.55 ± 0.11 | 2.59 ± 0.052
WTEKKGKNVINRERFIS [SMD2] | 2.54 ± 0.16 | 1.54 ± 0.066 | 1.11 ± 0.19 | 3.05 ± 0.087
ITLENITRLCQTLGLES [MED1] | 2.07 ± 0.04 | 2.28 ± 0.044 | 1.91 ± 0.055 | 1.89 ± 0.037
PYGVYHPPFIKYACLAI [SIN4] | 1.42 ± 0.048 | 1.44 ± 0.04 | 1.46 ± 0.073 | 1.17 ± 0.034
LTSFAEENNYQYGYSGS [SNF6] | 2.08 ± 0.064 | 2.22 ± 0.093 | 2.74 ± 0.11 | 2.48 ± 0.066
MSGFSLSEYLTKFQTTD [YCS4] | – | – | – | 2.9 ± 0.14
GTIDKLQLELTIEDIAV [RPO31] | 2.41 ± 0.064 | 2.79 ± 0.057 | 2.3 ± 0.053 | 2.54 ± 0.046
YVDEQSKNELKKAFTSY [RPS16A] | 3.06 ± 0.059 | 3.21 ± 0.044 | 3.07 ± 0.051 | 3.13 ± 0.052
EEKKKEHEEKEKERETN [RPN2] | 3.3 ± 0.23 | 3.37 ± 0.1 | 3.38 ± 0.15 | 3.44 ± 0.24
KKVVLRLECVKCKTRAQ [RPL42A] | 2.3 ± 0.12 | 2.03 ± 0.095 | 2.4 ± 0.16 | 2.09 ± 0.047
VSMKANKYQIKKAVKEL [RPL25] | 1.18 ± 0.065 | 1.52 ± 0.07 | 2.98 ± 0.056 | 2.97 ± 0.071
SVEWMKVSPSMCGVIVK [SIN4] | 1.74 ± 0.055 | 1.69 ± 0.051 | 1.69 ± 0.091 | 1.54 ± 0.063
VIAKLNHNQFECKGCDN [RPB2] | 2.93 ± 0.054 | 3.14 ± 0.067 | 3 ± 0.05 | 3.01 ± 0.097
FISELCSIEPIAAKLIN [YML103C/NUP188] | 1.41 ± 0.033 | 1.34 ± 0.044 | 1.44 ± 0.077 | 1.35 ± 0.045
DVILDYQTKKFYDYIKE [REC8] | 2.4 ± 0.06 | 2.58 ± 0.052 | 2.55 ± 0.071 | 2.92 ± 0.051
SSLEELLLKDQQTAKKL [ECM29] | 2.82 ± 0.091 | 2.99 ± 0.077 | 2.92 ± 0.1 | 2.95 ± 0.058
NSLAVRGKDCTVVISQK [SCL1] | 2.64 ± 0.075 | 2.9 ± 0.062 | 2.94 ± 0.051 | 2.72 ± 0.045
ASLQQQQQQDLQQQQQV [SNF6] | 2.66 ± 0.26 | 2.7 ± 0.17 | – | 2.69 ± 0.21
GKALVHHYEECAERVKI [QCR6] | 3.47 ± 0.093 | 3.28 ± 0.1 | 3.25 ± 0.073 | 3.39 ± 0.074
LEVFHHFFKWIEFIVYH [SRB8] | 1.13 ± 0.054 | 1.11 ± 0.047 | 1.08 ± 0.17 | 1.06 ± 0.041
EIRRFQKSTELLIRKLP [HHT1] | 2.64 ± 0.13 | 2.74 ± 0.095 | 1.87 ± 0.24 | 2.25 ± 0.12
GLYKMMEERDGAKFENI [AAR2] | 1.49 ± 0.19 | 1.87 ± 0.12 | 1.68 ± 0.2 | 1.74 ± 0.056
LGEFSITYTPVRHGRAG [RPS15] | 1.85 ± 0.15 | 1.85 ± 0.12 | 1.61 ± 0.15 | –
DFPHLTPKLQTQLSYLI [YCS4] | 2.82 ± 0.043 | 2.88 ± 0.045 | 2.79 ± 0.044 | 2.67 ± 0.038
ASRHGQKGTIGITYRRE [RPB2] | 2.53 ± 0.08 | 1.84 ± 0.051 | 2.39 ± 0.082 | 2.22 ± 0.051
PQKPVPLNVLQDQYKEG [SNF2] | 3.01 ± 0.07 | 3.33 ± 0.096 | 3.1 ± 0.086 | 2.94 ± 0.044
MAISKNLPILKNHFRKH [RPL13A] | 2.89 ± 0.1 | 2.89 ± 0.079 | 2.87 ± 0.081 | 2.54 ± 0.19
